What was measured:
[1] = target: T1, recombinant human IL-6 receptor alpha (IL-6Rα) (human, UniProt P08887 20-365); assay: SPR; competitive inhibition: IL-6Rα on a CM5 chip saturated with TCC (100 times its affinity constant; 1.5 μg/mL), then CIRBP as analyte; details: both partners purified
T1 construct: Interleukin-6 receptor subunit alpha, human; UniProtKB P08887 is printed for the docking; also called rhIL-6Rα; rhIL-6R; source: recombinant
T1 sequence (looked up): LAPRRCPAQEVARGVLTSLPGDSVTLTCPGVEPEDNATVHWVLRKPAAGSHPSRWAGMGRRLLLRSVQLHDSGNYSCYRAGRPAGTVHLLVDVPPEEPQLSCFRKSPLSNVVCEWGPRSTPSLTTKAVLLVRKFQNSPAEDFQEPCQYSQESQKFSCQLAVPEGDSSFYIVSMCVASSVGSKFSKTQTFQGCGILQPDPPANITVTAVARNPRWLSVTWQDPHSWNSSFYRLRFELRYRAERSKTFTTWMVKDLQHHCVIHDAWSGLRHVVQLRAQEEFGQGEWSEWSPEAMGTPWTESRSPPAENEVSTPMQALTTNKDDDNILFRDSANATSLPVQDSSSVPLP

[2] = target: T1, recombinant human IL-6 receptor alpha …; assay: SPR; human IL-6Rα immobilised on a CM5 chip; human CIRBP or TCC as analyte; details: both partners purified
[3] = tested on: microglia; assay: Cytokine mRNA and release in CIRP-stimulated microglia (RT-qPCR, ELISA); format: cell-based, mouse
Procedure: ELISA was used to quantify CIRP, MD2, IL-6, and TNF-α concentrations in blood and cerebrospinal fluid samples. Samples were processed and stored under standardized conditions to preserve protein integrity. Each target protein was measured using commercial ELISA kits, following the manufacturer’s instructions: Mouse CIRBP ELISA Kit (CSB-EL005440MO, CUSABIO), Mouse TNF-α ELISA Kit (EK282, Lianke Bio), Mouse IL-6 ELISA Kit (CSB-E04639m, CUSABIO), and […].
Primary cortical neurons were isolated from embryonic day 16–18 (E16–E18) C57BL/6 mouse embryos as previously described, and cultured in Neurobasal medium supplemented with B27 and GlutaMAX (Gibco).Primary microglial cells were isolated from the cortices of neonatal (day 1) C57BL/6J mice. After disinfection with 75 % ethanol, the skin and skull were removed, and the brains were placed in ice-cold HBSS. The meninges were peeled off, the cortex was collected, and the hippocampus was discarded. Tissues were digested with 0.25 % trypsin at 37 °C for 12 min, centrifuged at 1200 rpm for 5 min, and resuspended in complete medium. The suspension was transferred to a T75 flask with 15 mL of complete medium. […]
To mimic ischemic conditions, neurons at DIV7 were subjected to OGD. […] The supernatants were collected for subsequent CIRP quantification. […]

B1: recombinant human CIRP (cold-inducible RNA-binding protein) (natural protein, UniProt Q14011 1-172, looked up)
chain: MASDEGKLFVGGLSFDTNEQSLEQVFSKYGQISEVVVVKDRETQRSRGFGFVTFENIDDAKDAMMAMNGKSVDGRQIRVDQAGKSSDNRSRGYRGGSAGGRGFFRGGRGRGRGFSRGGGDRGYGGNRFESRSGGYGGSRDYYSSRSQSGGYSDRSSGGSYRDSYDSYATHNE
notes: UniProtKB Q14011 is printed for the docking; also called rhCIRP; human CIRBP; source: recombinant
[1]
  KD in the presence of the competitor TCC (1.5 μg/mL): 17.7 nM
[2]
  Kd: 4.27 nM
[3]; 24-hour CIRP stimulation with or without TCC, RT-qPCR, n = 3–6
  TNF-α and IL-6 mRNA in microglia: upregulated the transcription of pro-inflammatory cytokines TNF-α and IL-6 in microglia
[3]; rmCIRP 1 μg/mL, 24 h, ELISA, n = 3
  TNF-α secretion by microglia: the secretion of TNF-α was markedly increased
